Experimental findings from article doi:10.1101/713933 are described below.

The target in this assay is portal protein of bacteriophage P23-45 (in situ, in the procapsid) (bacteriophage P23-45 (Thermus thermophilus phage)). Description: cryo-EM structure.

One may read the stoichiometry N as a count of units in the complex or per binding partner.

With “portal protein of bacteriophage P23-45 (in situ, in the procapsid) (natural protein)”, the stoichiometry N worked out at 12 subunits.
